In US20050025821A1, “Lipid-comprising drug delivery complexes and methods for their production” (priority 2001, published 2005):
Starred links: 1 amine or outer side, 2 acyl side, 3 side chain; linkers in the order of their positions; H or OH if unused. Suc = O=C(CCC(=O)[*:2])[*:1]

Columns and labels:
[1] = Surface zeta potential (Malvern zeta sizer); assay type: physicochemical; conditions: 10 mol % in LPD, 5% dextrose USP pH 5.0
Description: LPDs were prepared as described by Li, S., et al., Gene Therapy, 1998. 5(7): p. 930-937. Lipid:protamine:DNA ratios of 12 nmol:0.9 μg:1 μg, 12 nmol:0.97 μg:1 μg, and 12 nmol:1 μg:1 μg were used for these experiments, as indicated. As a typical example, 150 μl of liposomes at 6mM were mixed with 197 μl of 5% dextrose USP followed by the addition of 153 μl of pre-compacted DNA at 490 μg/ml. This operation was performed under moderate vortex agitation (speed #3), and the resulting LPD solution contained 150 μg DNA/ml. […] The surface zeta potential was determined using a Malvern zeta sizer (Malvern Instrument Inc, Sacramento, Calif.).
Typically, 0.15 ml of mixed micelles prepared as describe above were mixed with 350 μl of DNA pre-compacted with protamine at a 2:1 protamine:DNA ratio under mild vortex agitation (speed 3). Particles formed spontaneously, i.e. solution became cloudy. […] Particle sizes were assessed as described above and typically were in the 100-200 nm range as determined using a N4Plus coulter (Beckman Coulter, Miami, Fla.) sizer in unimodal mode. The surface zeta-potential was determined using a Malvern zeta sizer (Malvern Instrument Inc, Sacramento, Calif.). […]
PPAA polymer was supplied by Dr. Allan Hoffman's laboratory (University of Washington, Seattle, Wash.). […] The surface zeta potential was determined using a Malvern zeta sizer (Malvern Instrument Inc, Sacramento, Calif). […]

[2] = Particle sizing (mean diameter, polydispersity; Coulter N4Plus, unimodal mode); assay type: physicochemical; conditions: condensed DNA 2:1 μg:μg, DNA 0.143 mg/ml, second experiment (Table 18)
Description: The liposomes were prepared as follows: 6000 nmol of 1,2-dioleoyl-3-trimethylammonium-propane (DOTAP) (Avanti Polar Lipid Inc., Alabaster, Ala.) at 20 mg/ml in chloroform and 6000 nmol of cholesterol (Avanti Polar Lipid Inc., Alabaster, Ala.), also prepared at 20 mg/ml in chloroform (J. T. Baker, Phillipsburg N.J.), were mixed in a borosilicate tube and dried for 1 hr under nitrogen at 4 liters per minute (LPM) using a N-EVAP™ (Organomation, Berlin, Mass.). The resulting lipid films were hydrated in 2 ml of 5% USP dextrose (Abbott Laboratories, North Chicago, Ill.) to achieve a final lipid concentration of 6 mM. […]
LPDs were prepared as described by Li, S., et al., Gene Therapy, 1998. […] The surface zeta potential was determined using a Malvern zeta sizer (Malvern Instrument Inc, Sacramento, Calif.).
DLPDs were generated by a modified version of the method previously described by Harvie, P., F. M. Wong, and M. B. Bally, Biophys J, 1998. […] Particle sizes were assessed as described above and typically were in the 150-300 nm range.
Typically, 0.15 ml of mixed micelles prepared as describe above were mixed with 350 μl of DNA pre-compacted with protamine at a 2:1 protamine:DNA ratio under mild vortex agitation (speed 3). […] The surface zeta-potential was determined using a Malvern zeta sizer (Malvern Instrument Inc, Sacramento, Calif.). […]

KB cells = assay: In vitro transfection (luciferase expression); assay type: cell-based; conditions: 1 μg DNA/well
Description: The following day, the media was removed and replaced with 500 μl of fresh serum-free media.

Substance	decrease in the zeta-potential versus conventional LPD [1] [mV]	size (nm) [2] [nm]	increase in transfection activity when formulated with CHEMS:DOPE compared to peptide-compacted DNA alone (KB cells)
DSPE-PEG5K-succinyl-ACDCRGDCFCG-COOH ({DSPE-PEG5K-Suc}-ACDCRGDCFCG-OH; cysteine pairing not given here) [DSPE-PEG5K-RGD, targeting factor-pegylated lipid conjugate]	15	–	–
KHKHKHKHKGKHKHKHKHK	–	25	No change in the transfection activity
